B1: BEX1 (parent)
chain: EENMERIGEEVRQLMEKLREKQLS

Variants of: B1
Assay: protein stability index of a GFP-peptide fusion (GPS, HEK-293T) (PSI 1-6); higher = more stable
Conditions: c terminus: a fixed tail appended
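Further: lentivirally expressed fusions sorted by FACS into six bins by GFP to DsRed ratio, PSI derived from sequencing read proportions per bin multiplied by bin number.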

**Q.** For EENMERIGEEVRQLYEKLREKQLS, which protein stability index is on record?
**A.** 4.89

**Q.** Which protein stability index does the source give for EENMERIGEEVRQLNEKLREKQLS here?
**A.** 3.02

**Q.** With EENMERIGEEVRQLPEKLREKQLS as the variant, how does the protein stability index read?
**A.** 5.5

**Q.** For EENMERIGEEVRQLLEKLREKQLS, which protein stability index is on record?
**A.** 4.98

**Q.** Which protein stability index does the source give for EENMERIGEEVRQLAEKLREKQLS here?
**A.** 2.64

**Q.** Which protein stability index does the source give for EENMERIGEEVRQLTEKLREKQLS here?
**A.** 5.18

**Q.** For EENMERIGEEVRQLEEKLREKQLS, which protein stability index is on record?
**A.** 4.89

**Q.** For EENMERIGEEVRQLFEKLREKQLS, which protein stability index is on record?
**A.** 4.08

**Q.** For EENMERIGEEVRQLVEKLREKQLS, which protein stability index is on record?
**A.** 3.78

**Q.** With EENMERIGEEVRQLWEKLREKQLS as the variant, how does the protein stability index read?
**A.** 3.71

**Q.** Which protein stability index does the source give for EENMERIGEEVRQLIEKLREKQLS here?
**A.** 4.87

**Q.** For EENMERIGYEVRQLMEKLREKQLS, which protein stability index is on record?
**A.** 4.17

**Q.** With EENMERIGEEVRQLMEKHREKQLS as the variant, how does the protein stability index read?
**A.** 5.04

**Q.** Which protein stability index does the source give for EENMERIGEEVRQLMEKCREKQLS here?
**A.** 3.82

**Q.** With EENMERIGEEVRQLMEKKREKQLS as the variant, how does the protein stability index read?
**A.** 5.26

**Q.** Which protein stability index does the source give for EENMERIGEEVRQLMEKEREKQLS here?
**A.** 5.35

**Q.** Which protein stability index does the source give for EENMERIGEEVRQLMEKMREKQLS here?
**A.** 4.59

**Q.** Which protein stability index does the source give for EENMERIGEEVRQLMEKIREKQLS here?
**A.** 4.48

**Q.** With EENMERIGEEVRQLMEKTREKQLS as the variant, how does the protein stability index read?
**A.** 5.53

**Q.** Which protein stability index does the source give for EENMERIGEEVRQLMEKWREKQLS here?
**A.** 4.84

**Q.** With EENMERIGEEVRQLMEKPREKQLS as the variant, how does the protein stability index read?
**A.** 5.86

**Q.** Which protein stability index does the source give for EENMERIGELVRQLMEKLREKQLS here?
**A.** 4.63

**Q.** For EENMERIGEPVRQLMEKLREKQLS, which protein stability index is on record?
**A.** 4.75

**Q.** With EENMERIGEYVRQLMEKLREKQLS as the variant, how does the protein stability index read?
**A.** 4.13

**Q.** For EENMERIGEGVRQLMEKLREKQLS, which protein stability index is on record?
**A.** 4.24

**Q.** For EENMERIGEWVRQLMEKLREKQLS, which protein stability index is on record?
**A.** 3.67

**Q.** With EENMERIGESVRQLMEKLREKQLS as the variant, how does the protein stability index read?
**A.** 4.31

**Q.** Which protein stability index does the source give for EENMERIGETVRQLMEKLREKQLS here?
**A.** 3.96

**Q.** With EENMERIGEHVRQLMEKLREKQLS as the variant, how does the protein stability index read?
**A.** 4

**Q.** With EENMERIGEMVRQLMEKLREKQLS as the variant, how does the protein stability index read?
**A.** 3.51

**Q.** For EENMERIGEAVRQLMEKLREKQLS, which protein stability index is on record?
**A.** 3.09

**Q.** With EENMERIGERVRQLMEKLREKQLS as the variant, how does the protein stability index read?
**A.** 2.79

**Q.** With EENMERIGEKVRQLMEKLREKQLS as the variant, how does the protein stability index read?
**A.** 3.89

**Q.** For EENMERIGEFVRQLMEKLREKQLS, which protein stability index is on record?
**A.** 2.91

**Q.** For EENMERIGEDVRQLMEKLREKQLS, which protein stability index is on record?
**A.** 4.76

**Q.** Which protein stability index does the source give for EENMERIGEERRQLMEKLREKQLS here?
**A.** 5.38

**Q.** Which protein stability index does the source give for EENMERIGEEGRQLMEKLREKQLS here?
**A.** 5.64

**Q.** Which protein stability index does the source give for EENMERIGEENRQLMEKLREKQLS here?
**A.** 5.46

**Q.** For EENMERIGEEPRQLMEKLREKQLS, which protein stability index is on record?
**A.** 5.37

**Q.** Which protein stability index does the source give for EENMERIGEEMRQLMEKLREKQLS here?
**A.** 4.63

**Q.** Which protein stability index does the source give for EENMERIGEETRQLMEKLREKQLS here?
**A.** 4.5

**Q.** For EENMERIGEEKRQLMEKLREKQLS, which protein stability index is on record?
**A.** 5.09

**Q.** With EENMERIGEEFRQLMEKLREKQLS as the variant, how does the protein stability index read?
**A.** 4.25

**Q.** With EENMERIGEELRQLMEKLREKQLS as the variant, how does the protein stability index read?
**A.** 4.68

**Q.** With EENMERIGEESRQLMEKLREKQLS as the variant, how does the protein stability index read?
**A.** 3.41

**Q.** Which protein stability index does the source give for EENMERIGEEDRQLMEKLREKQLS here?
**A.** 5.92

**Q.** Which protein stability index does the source give for EENMERIGEEHRQLMEKLREKQLS here?
**A.** 5.86

**Q.** For EENMERIGEECRQLMEKLREKQLS, which protein stability index is on record?
**A.** 4.19

**Q.** For EENMERIGEEVRQLMEGLREKQLS, which protein stability index is on record?
**A.** 4.86

**Q.** With EENMERIGEEVRQLMEQLREKQLS as the variant, how does the protein stability index read?
**A.** 4.38

**Q.** Which protein stability index does the source give for EENMERIGEEVRQLMEWLREKQLS here?
**A.** 4.17

**Q.** With EENMERIGEEVRQLMEILREKQLS as the variant, how does the protein stability index read?
**A.** 3.76

**Q.** For EENMERIGEEVRQLMEDLREKQLS, which protein stability index is on record?
**A.** 4.76

**Q.** Which protein stability index does the source give for EENMERIGEEVRWLMEKLREKQLS here?
**A.** 3.37

**Q.** With EENMERIGEEVRELMEKLREKQLS as the variant, how does the protein stability index read?
**A.** 5.38

**Q.** With EENMERIGEEVRPLMEKLREKQLS as the variant, how does the protein stability index read?
**A.** 4.79

**Q.** Which protein stability index does the source give for EENMERIGEEVRILMEKLREKQLS here?
**A.** 4.23

**Q.** Which protein stability index does the source give for EENMERIGEEVRMLMEKLREKQLS here?
**A.** 4.5

**Q.** With EENMERIGEEVRHLMEKLREKQLS as the variant, how does the protein stability index read?
**A.** 4.04

**Q.** For EENMERIGEEVRTLMEKLREKQLS, which protein stability index is on record?
**A.** 3.45

**Q.** With EENMERIGEEVRCLMEKLREKQLS as the variant, how does the protein stability index read?
**A.** 4.53

**Q.** With EENMERIGEEVRGLMEKLREKQLS as the variant, how does the protein stability index read?
**A.** 5.2

**Q.** With EENMERIGEEVRQLMNKLREKQLS as the variant, how does the protein stability index read?
**A.** 4.45

**Q.** With EENMERIGEEVRQLMHKLREKQLS as the variant, how does the protein stability index read?
**A.** 4.49

**Q.** For EENMERIGEEVRQLMRKLREKQLS, which protein stability index is on record?
**A.** 3.89

**Q.** Which protein stability index does the source give for EENMERIGEEVRQLMCKLREKQLS here?
**A.** 3.87

**Q.** Which protein stability index does the source give for EENMERIGEEVRQLMPKLREKQLS here?
**A.** 2.69

**Q.** With EENMERIGEEVRQLMVKLREKQLS as the variant, how does the protein stability index read?
**A.** 3.31

**Q.** With EENMERIGEEVRQLMKKLREKQLS as the variant, how does the protein stability index read?
**A.** 4.32

**Q.** For EENMERIGEEVRQLMWKLREKQLS, which protein stability index is on record?
**A.** 2.85

**Q.** Which protein stability index does the source give for EENMERIGEEVRQMMEKLREKQLS here?
**A.** 3.38

**Q.** For EENMERIGEEVRQRMEKLREKQLS, which protein stability index is on record?
**A.** 5.59

**Q.** For EENMERIGEEVRQWMEKLREKQLS, which protein stability index is on record?
**A.** 4.7

**Q.** Which protein stability index does the source give for EENMERIGEEVRQHMEKLREKQLS here?
**A.** 5.03

**Q.** With EENMERIGEEVRQQMEKLREKQLS as the variant, how does the protein stability index read?
**A.** 5.03

**Q.** For EENMERIGEEVRQNMEKLREKQLS, which protein stability index is on record?
**A.** 5.76

**Q.** Which protein stability index does the source give for EENMERIGEEVRQYMEKLREKQLS here?
**A.** 4.58

**Q.** For EENMERIGEEVRQCMEKLREKQLS, which protein stability index is on record?
**A.** 4.33

**Q.** For EENMERIGEEVRQIMEKLREKQLS, which protein stability index is on record?
**A.** 4.06

**Q.** With EENMERIGEEVRQVMEKLREKQLS as the variant, how does the protein stability index read?
**A.** 4.97

**Q.** For EENMERIGEEVRQLMEKLFEKQLS, which protein stability index is on record?
**A.** 3.95

**Q.** Which protein stability index does the source give for EENMERIGEEVRQLMEKLEEKQLS here?
**A.** 5.31

**Q.** With EENMERIGEEVRQLMEKLAEKQLS as the variant, how does the protein stability index read?
**A.** 4.72

**Q.** Which protein stability index does the source give for EENMERIGEEVFQLMEKLREKQLS here?
**A.** 4.12

**Q.** Which protein stability index does the source give for EENMERIGEEVHQLMEKLREKQLS here?
**A.** 5.45

**Q.** For EENMERIGEEVNQLMEKLREKQLS, which protein stability index is on record?
**A.** 4.1

**Q.** Which protein stability index does the source give for EENMERIGEEVPQLMEKLREKQLS here?
**A.** 5.1

**Q.** With EENMERIGEEVLQLMEKLREKQLS as the variant, how does the protein stability index read?
**A.** 3.77

**Q.** With EENMERIGEEVCQLMEKLREKQLS as the variant, how does the protein stability index read?
**A.** 4.43

**Q.** With EENMERIGEEVMQLMEKLREKQLS as the variant, how does the protein stability index read?
**A.** 4.62

**Q.** With EENMERIGEEVSQLMEKLREKQLS as the variant, how does the protein stability index read?
**A.** 4.85

**Q.** For EENMERIGEEVVQLMEKLREKQLS, which protein stability index is on record?
**A.** 5.27

**Q.** For EENMERIGEEVIQLMEKLREKQLS, which protein stability index is on record?
**A.** 4.22

**Q.** With EENMERIGEEVKQLMEKLREKQLS as the variant, how does the protein stability index read?
**A.** 4.78
